Patent US20200024330A1

How the values were obtained:
Assay in all cases: cell-based or functional assay
[1] = target: aMLV envelope (negative control pseudovirus)
[2] = target: HIV-1 Env of isolate MGRM-Chronic-B-012 (HIV-1)
[3] = target: HIV-1 Env of isolate MGRM-G-015 (HIV-1)
[4] = target: HIV-1 92TH021 envelope glycoprotein (Env) on pseudovirus (HIV-1)
[5] = target: HIV-1 Env of isolate MGRM-Chronic-B-023 (HIV-1)
[6] = target: HIV-1 Env of isolate MGRM-G-019 (HIV-1)
[7] = target: HIV-1 Env of isolate MGRM-Chronic-B-024 (HIV-1)
[8] = target: HIV-1 Env of isolate MGRM-G-027 (HIV-1)
[9] = target: HIV-1 Env of isolate MGRM-G-011 (HIV-1)
[10] = target: HIV-1 Env of isolate MGRM-G-006 (HIV-1)
[11] = target: HIV-1 Env of isolate JRFL (HIV-1)
[12] = target: HIV-1 Env of isolate MGRM-G-014 (HIV-1)
[13] = target: HIV-1 Env of isolate MGRM-Chronic-B-020 (HIV-1)
[14] = target: HIV-1 Env of isolate MGRM-G-009 (HIV-1)
[15] = target: HIV-1 Env of isolate MGRM-G-001 (HIV-1)
[16] = target: HIV-1 Env of isolate MGRM-Chronic-B-011 (HIV-1)
[17] = target: HIV-1 Env of isolate MGRM-Chronic-B-017 (HIV-1)
[18] = target: HIV-1 Env of isolate MGRM-G-004 (HIV-1)
[19] = target: HIV-1 92RW020 envelope glycoprotein (Env) on pseudovirus (HIV-1)
[20] = target: HIV-1 Env of isolate MGRM-G-017 (HIV-1)
[21] = target: HIV-1 Env of isolate MGRM-G-013 (HIV-1)
[22] = target: HIV-1 Env of isolate MGRM-Chronic-B-018 (HIV-1)
[23] = target: HIV-1 92BR020 envelope glycoprotein (Env) on pseudovirus (HIV-1)
[24] = target: HIV-1 Env of isolate 92BR020 (pseudovirus) (HIV-1 isolate 92BR020, subtype B)
[25] = target: HIV-1 92UG024 envelope glycoprotein (Env) on pseudovirus (HIV-1)
[26] = target: HIV-1 Env of isolate MGRM-Chronic-B-010 (HIV-1)
[27] = target: HIV-1 NL43 envelope glycoprotein (Env) on pseudovirus (HIV-1)
[28] = target: HIV-1 Env of isolate MGRM-G-016 (HIV-1)

Chain of 5329_C19 (PGT-136) (antibody) (VH): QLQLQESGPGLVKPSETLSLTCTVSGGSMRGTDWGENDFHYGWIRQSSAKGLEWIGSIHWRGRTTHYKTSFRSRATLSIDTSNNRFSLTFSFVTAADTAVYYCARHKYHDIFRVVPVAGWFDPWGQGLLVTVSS
Chain of 5329_C19 (PGT-136) (antibody) (VL): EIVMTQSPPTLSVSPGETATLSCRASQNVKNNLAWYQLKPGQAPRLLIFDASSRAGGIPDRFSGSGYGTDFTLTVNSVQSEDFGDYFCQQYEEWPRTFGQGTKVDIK
Chain of 5345_I01 (PGT-137) (antibody) (VH): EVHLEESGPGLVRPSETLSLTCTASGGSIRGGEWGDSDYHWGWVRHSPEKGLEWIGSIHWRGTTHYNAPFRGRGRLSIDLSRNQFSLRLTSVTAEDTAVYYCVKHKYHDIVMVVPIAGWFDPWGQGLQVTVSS
Chain of 5345_I01 (PGT-137) (antibody) (VL): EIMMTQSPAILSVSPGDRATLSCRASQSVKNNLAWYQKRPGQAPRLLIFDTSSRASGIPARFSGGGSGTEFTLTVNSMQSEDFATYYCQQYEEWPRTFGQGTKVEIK

Substance | IC50, pseudovirus neutralization [1] | IC50 [2] | IC50, pseudovirus neutralization [3] | IC50 [5] | IC50, pseudovirus neutralization [6] | IC50 [7] | IC50, pseudovirus neutralization [8] | IC50, pseudovirus neutralization [9] | IC50, pseudovirus neutralization [10] | IC50 [11] | IC50, pseudovirus neutralization [12] | IC50 [13] | IC50, pseudovirus neutralization [14] | IC50, pseudovirus neutralization [15] | IC50 [16] | IC50 [17] | IC50, pseudovirus neutralization [18] | IC50, pseudovirus neutralization [20] | IC50, pseudovirus neutralization [21] | IC50 [22] | other results
5147_N06 (PGT-130) (antibody) | > 50 µg/mL | 0.373 µg/mL | > 50 µg/mL | > 50 µg/mL | 27.9 µg/mL | 5.78 µg/mL | 4.14 µg/mL | > 50 µg/mL | > 50 µg/mL | 0.046 µg/mL | 2.23 µg/mL | 0.014 µg/mL | > 50 µg/mL | 0.0198 µg/mL | 0.153 µg/mL | > 50 µg/mL | > 50 µg/mL | > 50 µg/mL | > 50 µg/mL | 31.9 µg/mL | IC50 (ug/ml), neutralizing activity [4]: 0.0082 µg/mL; IC50 (ug/ml), neutralizing activity [19]: 0.014 µg/mL; IC50 (ug/ml), neutralizing activity [23]: 1.12 µg/mL; IC50 (µg/mL) neutralization [24]: 1.4 µg/mL; IC50 (ug/ml), neutralizing activity [25]: > 10 µg/mL; IC50 [26]: 0.006 µg/mL; IC50 (ug/ml), neutralizing activity [27]: > 10 µg/mL; IC50, pseudovirus neutralization [28]: > 50 µg/mL
5329_C19 (PGT-136) (antibody) | > 50 µg/mL | 43.1 µg/mL | > 50 µg/mL | > 50 µg/mL | 44.3 µg/mL | > 50 µg/mL | 45.2 µg/mL | > 50 µg/mL | > 50 µg/mL | > 50 µg/mL | > 50 µg/mL | > 50 µg/mL | > 50 µg/mL | 8.11 µg/mL | > 50 µg/mL | > 50 µg/mL | > 50 µg/mL | > 50 µg/mL | > 50 µg/mL | > 50 µg/mL | IC50 (ug/ml), neutralizing activity [19]: 0.738 µg/mL; IC50 (ug/ml), neutralizing activity [23]: > 10 µg/mL; IC50 (µg/mL) neutralization [24]: 8.61 µg/mL; IC50 [26]: > 50 µg/mL; IC50, pseudovirus neutralization [28]: > 50 µg/mL
5343_B08 (PGT-135) (antibody) | > 50 µg/mL | 0.166 µg/mL | > 50 µg/mL | 0.329 µg/mL | 0.145 µg/mL | > 50 µg/mL | 0.062 µg/mL | > 50 µg/mL | > 50 µg/mL | > 50 µg/mL | > 50 µg/mL | 0.057 µg/mL | > 50 µg/mL | 0.393 µg/mL | > 50 µg/mL | > 50 µg/mL | > 50 µg/mL | 0.137 µg/mL | > 50 µg/mL | > 50 µg/mL | IC50 (ug/ml), neutralizing activity [19]: 0.157 µg/mL; IC50 (ug/ml), neutralizing activity [23]: 0.104 µg/mL; IC50 (µg/mL) neutralization [24]: 0.073 µg/mL; IC50 [26]: > 50 µg/mL; IC50, pseudovirus neutralization [28]: > 50 µg/mL
5345_I01 (PGT-137) (antibody) | > 50 µg/mL | > 50 µg/mL | > 50 µg/mL | > 50 µg/mL | 0.126 µg/mL | > 50 µg/mL | 0.228 µg/mL | > 50 µg/mL | > 50 µg/mL | > 50 µg/mL | > 50 µg/mL | 32.9 µg/mL | > 50 µg/mL | 41.7 µg/mL | > 50 µg/mL | > 50 µg/mL | > 50 µg/mL | 34.9 µg/mL | > 50 µg/mL | > 50 µg/mL | IC50 (µg/mL) neutralization [24]: 7.81 µg/mL; IC50 [26]: > 50 µg/mL; IC50, pseudovirus neutralization [28]: > 50 µg/mL
